This is an account of results in patent US8273705B2, “Conversion of apoptotic proteins” (The Burnham Institute, priority 2002, dated 2012).

Assay type in all cases: cell-based
Experiment [1] has as its system NCI-H460 lung cancer cells. Kind of experiment: GFP-TR3/ΔDBD mitochondrial targeting in NCI-H460 lung cancer cells. The settings on record: transient transfection. Here is the method:
Subcellular localization assays—Cells were seeded onto cover-slips in 6-well plates overnight, then transiently transfected with GFP-fusion expression plasmids. After 16 hours, cells were washed with PBS and fixed in 4% paraformaldehyde. For mitochondrial staining, cells were then incubated with anti-Hsp60 goat IgG (Santa Cruz, USA), followed by anti-goat IgG conjugated with Cy3 (Sigma). For cyt c staining, cells were incubated with monoclonal anti-cyt c IgG (PharMingen), followed by anti-mouse IgG conjugated with Cy5 (Amersham). Fluorescent images were collected and analyzed using a MRC-1024 MP laser-scanning confocal microscope (Bio-Rad). Subcellular fractionation assays were performed as described (Li, et al. 2000 Science 289:1159-1164). Briefly, cells (1×10^7 cells) suspended in 0.5 ml hypotonic buffer (5 mM Tris-HCl, pH 7.4, 5 mM KCl, 1.5 mM MgCl2, 0.1 mM EGTA, pH 8.0, and 1 mM DTT) were homogenized and cell extracts were centrifuged at 500×g for 5 min. The resulting supernatant was centrifuged at 10,000×g for 30 min at 4° C. to obtain the HM fraction. […]
Given the results of these studies, it was desirable to determine whether TR3 exerts its apoptotic effect in lung cancer cells as in prostate cancer cells by targeting to mitochondria. […] The cells were stained for mitochondria (Hsp60) and cytochrome c (Cyt c), and analyzed by confocal microscopy. […]

In a further experiment the target is T1, Bcl-2/ΔTM (Homo sapiens, UniProt P10415).
T1 construct: expressed in transfected cells; host or cells: CV-1
T1 sequence (P10415 1-204 limits assumed, stated change not applied): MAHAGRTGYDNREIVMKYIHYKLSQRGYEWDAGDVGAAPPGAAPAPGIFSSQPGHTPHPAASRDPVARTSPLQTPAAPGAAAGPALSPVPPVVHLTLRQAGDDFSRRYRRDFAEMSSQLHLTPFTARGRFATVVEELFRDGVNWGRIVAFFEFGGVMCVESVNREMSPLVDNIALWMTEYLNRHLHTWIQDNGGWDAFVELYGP
The experiment is described as follows: Mammalian two-hybrid assay in CV-1 cells. As to conditions: Gal-TAD fusion co-expressed with Gal4-DBD-Bcl-2/ΔTM, 48 h. How it is done: TR3/Bcl-2 interaction assays—Reporter gene assays using NurRE-tk-CAT in CV-1 cells, and GST pull-down assay were described previously (Li, et al. 2000 Science 289, 1159-1164). For the mammalian two-hybrid assays, CV-1 cells were co-transfected with pcDNA-Gal4TAD-TR3 or pcDNA-Gal4TAD-TR3/ΔDBD and pcDNA-Gal4DBD-Bcl-2/ΔTM along with a luciferase reporter gene driven by four copies of the Gal4-binding site. The cells were harvested and reporter gene activity was measured. For Co-IP assays, HEK293T cells were transiently transfected with various expression plasmids using a modified calcium phosphate precipitation method (Wu et al, 1997) in the presence of caspase inhibitors (zVAD-fmk) to prevent degradation of TR3 protein due to apoptosis. Cells were suspended in lysis buffer (50 mM Tris-HCl, PH7.4; 150 mM NaCl; 20 mM EDTA; 1% NP-40; 1 mM PMSF; 50 μg/ml Leupeptin; […]; 0.1 mM Na3VO4; and 1 mM DTT). […] Immunoreactive products were detected by chemiluminescence with an enhanced chemiluminescence system (ECL) (Amersham).
E. Two-hybrid assay—a two-hybrid assay was performed to assess the interaction of TR3 and Bcl-2. […] Reporter gene activity was determined 48 h later and normalized relative to β-gal activity.

Experiment [2] has as its system MCF-7 breast cancer cells. The experiment is described as follows: DAPI apoptosis assay in MCF-7 cells. How it is done: Apoptosis assays—For nuclear morphological change analysis, cells were trypsinized, washed with PBS, fixed with 3.7% paraformaldehyde, and stained with DAPI (4,6-diamidino-2-phenylindole) (50 μg/ml) to visualize the nuclei by UV-microscopy. The percentages of apoptotic cells were determined by counting 300 GFP-positive cells, scoring cells having nuclear fragmentation and/or chromatin condensation.
DAPI staining was used to study the apoptotic effect of TR3/Bcl-2 interaction. 293T cells were transfected with GFP-TR3/ΔDBD alone or together with Bcl-2. After 36 h, nuclei were stained by DAPI and nuclear fragmentation and chromatin condensation were identified. Cells were also stained with anti-Bcl-2 antibody, followed by TRITC-conjugated secondary antibody (Sigma). Bcl-2 and GFP-ΔDBD expression and nuclear morphology were visualized by fluorescence microscopy, and the two images were overlaid. […] But, when Bcl-2 was cotransfected, a significant amount of transfected cells underwent apoptosis. For example, approximately 4% of cells transfected with either TR3/ΔDBD or Bcl-2 were apoptotic, compared to 35% of cell transfected with both. […] Cotransfection of Bcl-2, however, prevented BAX-induced apoptosis in these cells (see FIG. 4). The effect of Bcl-2 on apoptotic potential of TR3/ΔDBD in lung cancer and breast cancer cells was also investigated.

B1: TR3/ΔDBD: TR3 mutant with the DNA binding domain removed; used as GFP fusion (protein)
chain: MPCIQAQYGTPAPSPGPRDHLASDPLTPEFIKPTMDLASPEAAPAAPTALPSFSTFMDGYTGEFDTFLYQLPGTVQPCSSASSSASSTSSSSATSPASASFKFEDFQVYGCYPGPLSGPVDEALSSSGSDYYGSPCSAPSPSTPSFQPPQLSPWDGSFGHFSPSQTYLVLHRLQCARGFGDWIDSILAFSRSLHSLLVDVPAFACLSALVLITDRHGLQEPRRVEELQNRIASCLKEHVAAVAGEPQPASCLSRLLGKLPELRTLCTQGLQRIFYLKLEDLVPPPPIIDKIFMDTLPF
modifications: left off: large carriers; small tags and cut ends
notes: used as GFP fusion
For the molecule B1, the GFP-TR3/ΔDBD subcellular localization result in experiment [1] is listed as “targeted to mitochondria”. Further, the “Gal4 reporter gene activity” value in the experiment with Bcl-2/ΔTM is on record as “strongly activated”. The apoptosis entry is “did not show any apoptotic effect” in experiment [2] (MCF-7, absence of Bcl-2) and “strong induction of apoptosis” in experiment [2] (MCF-7, co-expression of Bcl-2).
